Measured values as given in patent US20260126425A1.
pKd: −log10 of the molar value.

What was measured:
[1] = molecular target: SARS-CoV-2 Spike protein (Spike trimer) (SARS-CoV-2) (UniProt P0DTC2)
[2] = molecular target: SARS-CoV-2 Spike protein (Spike trimer) (SARS-CoV-2) (UniProt P0DTC2); remark: listed apart in the source
[3] = molecular target: SARS-CoV-2 Spike protein (Spike trimer) (SARS-CoV-2) (UniProt P0DTC2); remark: listed apart in the source

Ty1-modified ClyA nanopore (ClyA-f-Ty1)
constant fit of Log10(tin (ms)) against Spike protein concentration (pM) [1]: 1.48 Log10(ms)
pKd [2]: 9.12
EC50 (read off the curve) [3]: 0.6 nM
